Literature values as cited in US20150050259A1, “NUTRACEUTICAL MODULATORS OF STEM CELL ACTIVITY” (Creative Medical Health Inc., priority 2011, published 2015).

B1: G-CSF: Granulocyte colony stimulating factor, cytokine drug used for neutropenia and mobilization of hematopoietic stem cells (protein, UniProt P09919 31-207, looked up)
Granulocyte …: TPLGPASSLPQSFLLKCLEQVRKIQGDGAALQEKLVSECATYKLCHPEELVLLGHSLGIPWAPLSSCPSQALQLAGCLSQLHSGLFLYQGLLQALEGISPELGPTLDTLQLDVADFATTIWQQMEELGMAPALQPTQGAMPAFASAFQRRAGGVLVASHLQSFLEVSYRVLRHLAQP

What was measured:
[1] = patients after intensive chemotherapy
[2] = acute stroke patients
[3] = 114 patients, 56 treated and 58 control
[4] = stroke patients
[5] = 2.5, 5, or 10 μg/kg G-CSF for 5 consecutive days
[6] = between baseline and 12-month follow-up

Molecule	abnormal growth or acromegaly after treatment [1]	recovery of platelets to 25×10(9)/l, median time ([1]; P=0.03 versus placebo) [days]	increase in the leukocyte count [2, 5]	mobilization of CD34(+) cells [2, 5]	G-CSF toxicity in neuroradiological and neuropsychological follow-up [2]	increase of CD34s over normal (subcutaneous G-CSF) [fold]	safety of administration (subcutaneous G-CSF 10 μg/kg for 6 days, revascularized STEMI patients)	influence on infarct size, left ventricular function, or coronary restenosis [3]	BI: change in the mean group score [4, 6] [%]	EMS: change in the mean group score [4, 6] [%]	ESS: change in the mean group score [4, 6] [%]	NIHSS: change in the mean group score [4, 6] [%]	adverse effects as a result of treatment [4]
GH: growth hormone, a 191-amino acid, single chain polypeptide hormone naturally produced by the anterior pituitary	no abnormal growth or acromegaly was observed	16											
B1			up to 75,500 /μl	Mobilization of CD34(+) cells was observed	did not disclose any specific G-CSF toxicity	20	safe	no influence on infarct size, left ventricular function, or coronary restenosis	120	106	33	59	no serious adverse effects
